The assay addresses GST-CR3 (HAdV-5 E1A residues 139–204 fused to GST) (human adenovirus type 5 (HAdV-5)) (UniProt P03255). The assay is described as follows: pull-down.

Full-length, purified FLAG-tagged CBP (CREB-binding protein), Q92793 1-2442 (natural protein), sequence (Q92793 whole entry): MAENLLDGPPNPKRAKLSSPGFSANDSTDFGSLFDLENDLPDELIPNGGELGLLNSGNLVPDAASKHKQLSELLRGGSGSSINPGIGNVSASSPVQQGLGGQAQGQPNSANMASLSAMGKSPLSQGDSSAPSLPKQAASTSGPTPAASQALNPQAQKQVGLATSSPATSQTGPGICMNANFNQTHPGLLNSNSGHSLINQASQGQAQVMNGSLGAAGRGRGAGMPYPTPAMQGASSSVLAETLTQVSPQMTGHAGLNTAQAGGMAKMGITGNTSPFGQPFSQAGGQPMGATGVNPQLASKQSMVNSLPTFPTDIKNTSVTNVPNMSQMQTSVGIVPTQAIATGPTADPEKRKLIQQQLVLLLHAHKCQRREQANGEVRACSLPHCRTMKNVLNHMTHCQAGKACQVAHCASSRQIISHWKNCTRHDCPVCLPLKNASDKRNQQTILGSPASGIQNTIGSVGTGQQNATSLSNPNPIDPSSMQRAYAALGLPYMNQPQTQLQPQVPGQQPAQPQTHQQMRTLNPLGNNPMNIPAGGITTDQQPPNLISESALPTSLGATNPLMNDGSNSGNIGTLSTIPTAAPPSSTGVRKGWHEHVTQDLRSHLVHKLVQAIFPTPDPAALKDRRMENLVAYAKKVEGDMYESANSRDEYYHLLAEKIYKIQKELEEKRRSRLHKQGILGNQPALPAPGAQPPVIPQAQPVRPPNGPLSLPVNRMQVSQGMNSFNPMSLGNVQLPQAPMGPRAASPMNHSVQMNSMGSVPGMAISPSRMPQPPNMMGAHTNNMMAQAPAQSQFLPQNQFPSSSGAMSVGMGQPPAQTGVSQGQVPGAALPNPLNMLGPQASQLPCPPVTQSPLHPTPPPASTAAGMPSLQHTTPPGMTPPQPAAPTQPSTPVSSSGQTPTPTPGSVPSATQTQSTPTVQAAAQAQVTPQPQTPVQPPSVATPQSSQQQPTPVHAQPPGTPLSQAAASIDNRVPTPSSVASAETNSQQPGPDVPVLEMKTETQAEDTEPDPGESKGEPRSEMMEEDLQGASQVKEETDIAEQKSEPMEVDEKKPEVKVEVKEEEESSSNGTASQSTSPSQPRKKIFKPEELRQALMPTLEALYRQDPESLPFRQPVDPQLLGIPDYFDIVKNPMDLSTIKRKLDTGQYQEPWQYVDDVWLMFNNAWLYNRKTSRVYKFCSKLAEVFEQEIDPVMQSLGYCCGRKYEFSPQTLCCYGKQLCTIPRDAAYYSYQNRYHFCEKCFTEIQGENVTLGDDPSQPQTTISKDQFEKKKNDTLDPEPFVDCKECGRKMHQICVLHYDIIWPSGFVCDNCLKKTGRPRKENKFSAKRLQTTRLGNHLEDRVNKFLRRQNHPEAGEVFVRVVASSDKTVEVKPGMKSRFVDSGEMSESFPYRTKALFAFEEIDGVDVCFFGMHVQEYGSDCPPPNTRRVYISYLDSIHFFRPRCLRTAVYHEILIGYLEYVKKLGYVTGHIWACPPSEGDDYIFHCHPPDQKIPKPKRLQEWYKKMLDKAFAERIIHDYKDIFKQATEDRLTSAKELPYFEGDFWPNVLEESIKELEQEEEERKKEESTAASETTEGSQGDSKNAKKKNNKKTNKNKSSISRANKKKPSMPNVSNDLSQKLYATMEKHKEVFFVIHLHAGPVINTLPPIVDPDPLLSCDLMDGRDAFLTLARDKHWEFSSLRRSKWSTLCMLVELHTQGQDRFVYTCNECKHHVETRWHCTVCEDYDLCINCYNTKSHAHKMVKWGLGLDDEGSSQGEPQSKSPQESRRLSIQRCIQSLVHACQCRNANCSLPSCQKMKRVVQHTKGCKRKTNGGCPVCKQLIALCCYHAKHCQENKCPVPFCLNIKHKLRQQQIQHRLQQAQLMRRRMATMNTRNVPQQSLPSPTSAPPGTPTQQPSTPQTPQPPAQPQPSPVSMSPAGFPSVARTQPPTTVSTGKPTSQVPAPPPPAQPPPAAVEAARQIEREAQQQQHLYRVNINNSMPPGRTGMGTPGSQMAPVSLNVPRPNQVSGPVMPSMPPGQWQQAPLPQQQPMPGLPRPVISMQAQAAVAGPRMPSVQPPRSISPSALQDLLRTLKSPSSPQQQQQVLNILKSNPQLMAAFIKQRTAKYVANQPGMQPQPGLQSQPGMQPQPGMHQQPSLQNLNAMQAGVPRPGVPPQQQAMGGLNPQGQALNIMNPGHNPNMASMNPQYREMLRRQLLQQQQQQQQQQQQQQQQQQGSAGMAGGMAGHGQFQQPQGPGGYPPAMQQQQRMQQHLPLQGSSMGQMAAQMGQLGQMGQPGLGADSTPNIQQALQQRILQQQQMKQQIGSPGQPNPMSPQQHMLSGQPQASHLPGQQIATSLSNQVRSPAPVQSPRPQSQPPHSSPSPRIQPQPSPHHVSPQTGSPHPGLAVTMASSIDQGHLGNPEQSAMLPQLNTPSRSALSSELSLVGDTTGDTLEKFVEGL
GST-CR3 (HAdV-5 E1A residues 139–204 fused to GST) (human adenovirus type 5 (HAdV-5)), sequence (P03255 139-204): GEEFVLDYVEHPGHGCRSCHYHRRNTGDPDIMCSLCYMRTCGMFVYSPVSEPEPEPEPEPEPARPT

The substance “Full-length, purified FLAG-tagged CBP (CREB-binding protein), Q92793 1-2442 (natural protein)” gave a reduction of the interaction on addition of HeLa total cellular extract of 50%.
